From US20080220446A1, “Method for Detecting and/or Removing Protein and/or Peptide Comprising a Cross-Beta Structure From an Aqueous Solution Comprising a Protein” (priority 2005, published 2008) come the findings set out here.

Data set [1] in a line: Stability testing of biopharmaceuticals under denaturing conditions. The format is physicochemical. Particulars: after exposure to harsh denaturing conditions (low pH or heat). The method, then: For this purpose, 5 mg/mL Glucagon (Glucagen; Novo Nordisk Farma B. V., Alphen aan de Rijn, The Netherlands) was incubated at 37° C. in 0.01 M HCl for 48 hours. One mg/mL Etanercept (Enbrel; Wyeth Pharmaceuticals B. V., Hoofddorp, The Netherlands) in 67 mM sodium phosphate buffer, 100 mM NaCl pH 7.0 was gradually heated from 30° C. to 85° C. over a period of 12 minutes and afterwards cooled to 4° C. for 5 minutes, this treatment was repeated 4 times. Abciximab (Reopro; Centocor B. V., Leiden, The Netherlands) and Infliximab (Remicade; Schering-Plough B. V., Utrecht, The Netherlands) were incubated at 65° C. for 16 and 72 hours, respectively.

In another data set the target is T1, LRP cl-IV (Homo sapiens, UniProt Q07954).
T1 construct: Cluster IV of the low-density lipoprotein (LDL) receptor-related protein (LRP cl-IV); made in house; host or cells: HEK293E/S
T1 sequence (Q07954 3332-3778): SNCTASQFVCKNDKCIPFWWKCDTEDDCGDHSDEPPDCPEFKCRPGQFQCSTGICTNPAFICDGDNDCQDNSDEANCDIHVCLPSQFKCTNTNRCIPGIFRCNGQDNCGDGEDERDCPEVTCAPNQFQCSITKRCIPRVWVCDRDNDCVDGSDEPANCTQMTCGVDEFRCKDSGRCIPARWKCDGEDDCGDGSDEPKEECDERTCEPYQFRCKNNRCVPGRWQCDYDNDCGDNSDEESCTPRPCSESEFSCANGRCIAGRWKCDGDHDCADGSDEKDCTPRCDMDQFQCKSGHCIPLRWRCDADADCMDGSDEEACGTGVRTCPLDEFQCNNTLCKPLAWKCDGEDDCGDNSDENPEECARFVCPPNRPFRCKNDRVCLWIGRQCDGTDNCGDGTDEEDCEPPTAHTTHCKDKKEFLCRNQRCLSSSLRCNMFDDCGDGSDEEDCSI
As to the kind of experiment: ELISA, LRP cluster IV binding to misfolded proteins. To be noted: coated at 5 μg/ml. The method, then: Binding of LRP cl-IV to misfolded protein was determined using an enzyme linked immuno sorbent assay (ELISA) set-up. For this purpose 50 μl of a 5 μg/ml solution of BSA, BSA-AGE, Hb or Hb-AGE or coat buffer (for negative control) was coated for 1 h with motion. Proteins were diluted in coat buffer (100 mM NaHCO3 pH 9.6). The BSA and Hb controls were prepared freshly by dissolving proteins at 1 mg/ml in PBS by rolling for 10 minutes on a roller bank at room temperature, 10 minutes incubation at 37° C. followed by again 10 minutes incubation at the roller bank. Coat controls were performed with anti-glycated protein antibody 4B5, anti-albumin antibody or anti Hb antibody. After coating the plates were washed twice with PBS/0.1% Tween-20 (v/v) and blocked with 300 μl/well blocking reagent (Roche Diagnostics, Almere, The Netherlands) for 1 h at room temperature with motion. […] After five washes with wash buffer binding of antibody was assessed with a secondary antibody. […] After 5 washes with wash buffer, binding of anti-FLAG antibody and secondary antibodies was assessed with 100 μl/well TMB substrate (ready to use from Tebu Bio). […] After ˜2 minutes absorbance was read at 450 nm.

The target of a further data set is tPA (Homo sapiens, UniProt P00750). As to the kind of experiment: Biacore surface plasmon resonance, binding to immobilized tPA. To be noted: Hb-AGE 32, albumin-AGE 3.9, amyloid γ-globulins 62.5 μg ml^−1. The method, then:
Binding of cross-β structure containing peptides/proteins was studied using surface plasmon resonance technology with a Biacore 2000 apparatus (Biacore AB, Uppsala, Sweden). A standardized amine coupling procedure was used to couple proteins with F domains to a CM5 chip (Biacore AB, Uppsala, Sweden). First, the dextran surface of the chips was activated by a 35 μl injection with a 1:1 mixture of 0.1 M N-hydroxysuccinimide (NHS) and 0.4 M N-ethyl-N′-(dimethylaminopropyl)carbodiimide (EDC) at a flow rate of 5 μl min.^−1. Then, the proteins were covalently coupled to the activated dextran surface. Remaining activated groups in each of the four flow channels were blocked by injection of 35 μl of 1 M ethanolamine hydrochloride pH 8.5. EDC, NHS and ethanolamine hydrochloride were obtained from Biacore. On one chip, on channels 1 to 4, buffer (reference channel), the soluble extracellular part of receptor for advanced glycation endproducts (sRAGE), tPA and K2P-tPA were immobilized. […] Binding of albumin-AGE was determined with a solution of 3.9 μg ml^−1 albumin-AGE in running buffer. albumin-AGE was filtered on a Millex-GV 0.22 μm filter unit (Millipore). […] Binding of Hb-AGE was also tested after centrifugation for 10 min. at 16,000*g alternative to filtration. tPA activation before and after filtration was assessed with a Plg-activation assay. […]
On the technique in general: In SPR one partner is held on a chip, and binding of the other changes the refractive index at the surface.

tPA, sequence (P00750 36-562): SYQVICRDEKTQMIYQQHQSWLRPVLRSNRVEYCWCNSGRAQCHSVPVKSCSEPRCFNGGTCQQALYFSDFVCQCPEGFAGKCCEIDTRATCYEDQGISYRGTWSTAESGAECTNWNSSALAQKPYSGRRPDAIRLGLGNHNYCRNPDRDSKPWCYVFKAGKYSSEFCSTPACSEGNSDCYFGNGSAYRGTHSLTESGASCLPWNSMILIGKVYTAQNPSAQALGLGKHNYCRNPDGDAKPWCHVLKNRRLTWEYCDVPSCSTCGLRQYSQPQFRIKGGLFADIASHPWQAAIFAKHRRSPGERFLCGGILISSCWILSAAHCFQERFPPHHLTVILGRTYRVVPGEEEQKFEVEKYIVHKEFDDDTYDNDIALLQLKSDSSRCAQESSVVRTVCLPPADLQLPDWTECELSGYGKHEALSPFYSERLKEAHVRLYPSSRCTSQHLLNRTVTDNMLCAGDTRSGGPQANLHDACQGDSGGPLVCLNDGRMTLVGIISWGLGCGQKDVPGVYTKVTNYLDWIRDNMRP

For the substance “Abciximab: abciximab, an inhibitor of blood platelet aggregation (ReoPro, Centocor)”, the “amyloid-like properties (ThT-fluorescence and tPA activation)” value in data set [1] is “amyloid-like properties are adopted”. Consider “albumin-AGE: advanced glycation end-product modified bovine serum albumin”, for which the “binding of LRP cl-IV” value with LRP cl-IV is on record as “binds specifically”. The “binding to immobilized tPA” value with tPA was “bind”.
